pKd: −log10 of the molar value.
Tests used:
[1] = biological target: HLA-A*24:02; assay: IEDB peptide-MHC binding, purified MHC/direct/fluorescence; filed as Kd, often an IC50 or EC50 that approximates it; ≥ and ≤ were set here for values at or beyond the usual limits of such assays; settings: source organism: Francisella tularensis subsp. tularensis SCHU S4
[2] = biological target: HLA-B*07:02; assay: IEDB peptide-MHC binding, purified MHC/competitive/fluorescence; filed as Kd, often an IC50 or EC50 that approximates it; ≥ and ≤ were set here for values at or beyond the usual limits of such assays; settings: source organism: Francisella tularensis subsp. tularensis SCHU S4
[3] = biological target: HLA-A*02:01; assay: IEDB peptide-MHC binding, purified MHC/direct/fluorescence; filed as Kd, often an IC50 or EC50 that approximates it; ≥ and ≤ were set here for values at or beyond the usual limits of such assays
[4] = biological target: HLA-B*07:02; assay: as above
[5] = source organism: Francisella tularensis subsp. tularensis SCHU S4
[6] = source organism: Francisella tularensis

RYTDSEYFVI
pKd [1]: 7.82

TYTSTLHPRL
pKd [1]: 6.70

SYSYLVYLI
pKd [1]: 8.52

NYVDSAQLAF
pKd [1]: 8.05

FPNINFSPEV
pKd [2]: ≤ 5.30

ILLPWFVDL
pKd [3, 5]: ≥ 9.00

KLLGQINLV
pKd [3, 5]: ≥ 9.00

MPVSRQISRM
pKd [4, 5]: 6.18

FPQANLTGGI
pKd [2]: 5.67

FPICSVFKFL
pKd [4, 5]: 6.60

WYTNLDTDKF
pKd [1]: 6.59

FLSNVGHYV
pKd [3, 5]: ≥ 9.00

KLWGLVDFV
pKd [3, 5]: ≥ 9.00

FLSPNQVTNV
pKd [3, 5]: ≥ 9.00

SPMEHSKRI
pKd [4, 5]: 7.21

IYNNYDVLF
pKd [1]: 7.64

APFANTYSAL
pKd [4, 6]: 7.66

GTDGFPFKL
pKd [3, 5]: 7.62

VPRKPLLSYI
pKd [4, 5]: 7.42

WLGNHGFEV
pKd [3, 5]: ≥ 9.00

LYSENGHFSW
pKd [1]: 7.74

GIDGNVTFTV
pKd [3, 5]: ≥ 9.00

APAFVVIADL
pKd [4, 5]: 6.94

TYPNSQQQTL
pKd [1]: 6.74

SPMGPLAVSF
pKd [4, 5]: 7.74

SYTFTQTFF
pKd [1]: 7.62

TPNGNIPTL
pKd [4, 5]: 7.34

YYLDRGYLDF
pKd [1]: 8.00

APYPNVVEM
pKd [4, 5]: 6.90

KYWNNHRQGI
pKd [1]: 6.36

WLGETFHGL
pKd [3, 5]: ≥ 9.00

KIDSTSFSV
pKd [3, 5]: ≥ 9.00

QLVGRVFAGL
pKd [3, 6]: 8.70

KLAKKVLSRV
pKd [3, 5]: 8.00

APAWFQASA
pKd [2]: ≤ 5.30

PYLKSFLSF
pKd [1]: 7.70

RLIGHISTL
pKd [3, 5]: ≥ 9.00

PYLKQGIEF
pKd [1]: 8.10

SYDRWGIPI
pKd [1]: 7.48

AYVKNGYFEI
pKd [1]: 7.12

IFWQFHQLL
pKd [1]: 8.00

IPMTLTASPL
pKd [4, 5]: 8.40

FPATGQNIYM
pKd [4, 5]: 6.23

LMWDNVGLV
pKd [3, 5]: ≥ 9.00

FPINLNSSQL
pKd [4, 5]: 7.21

GLNLVVSSSV
pKd [3, 5]: 7.70

NYQKWTAPL
pKd [1]: 8.30

NLDTSPFFV
pKd [3, 5]: ≥ 9.00

KLGGYVSFV
pKd [3, 5]: ≥ 9.00

NYNNLDDKF
pKd [1]: 8.52

FLMPFMHYIV
pKd [3, 5]: ≥ 9.00

LYQPLLDLL
pKd [1]: 7.52

QLWPEEIGV
pKd [3, 5]: ≥ 9.00

FPICSTYKFL
pKd [4, 5]: 6.65

SPQANNLYL
pKd [4, 5]: 7.13

IYSDKGLLF
pKd [1]: 8.40

ILDPKTGLV
pKd [3, 5]: 7.82

VLPGVVVPIV
pKd [3, 5]: 7.82

IPRTMLPLSL
pKd [4, 5]: 8.52

LPRYNIATSV
pKd [4, 5]: 8.52

FPKAFINIV
pKd [4, 5]: 6.82

KLLPEGYWV
pKd [3, 5]: ≥ 9.00

IMSSFEFQV
pKd [3, 5]: ≥ 9.00

Reference: the Immune Epitope Database (IEDB)
